This assay deals with VAPB-MSP domain, MSP(1–125) (human) (UniProt O95292). Put plainly: NMR titration; 1H-15N HSQC of 15N-labelled VAPB protein (50 uM) with unlabelled NS5B or Eph protein added at different molar ratios (increment 0.5 for C-linker and Eph); 10 mM phosphate buffer pH 6.8, 25 C, 800 MHz; CSD tracings fitted with a one binding site model for residue-specific Kd.
UniProt O95292, sequence (O95292 1-125): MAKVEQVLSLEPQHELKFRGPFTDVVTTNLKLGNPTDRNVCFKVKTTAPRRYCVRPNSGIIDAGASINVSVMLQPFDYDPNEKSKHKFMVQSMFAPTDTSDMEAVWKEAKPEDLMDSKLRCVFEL

Take NS5B C-linker peptide (531–570): the Kd was 8.8 µM, the residue-specific Kd (MSP residue 53C) was determined as 1.4 µM, the residue-specific Kd (MSP residue 79D) amounted to 13.6 µM and the residue-specific Kd (MSP residue 82E) was found to be 12.8 µM. Further, the residue-specific Kd (MSP residue 90V) is 9 µM, the residue-specific Kd (MSP residue 116D) came to 5.7 µM, the residue-specific Kd (MSP residue 118K) was 2.9 µM and the residue-specific Kd (MSP residue 119L) was 16 µM.

For the origin of these results see publication PMC4718513.
